Reference: the supplement of paper PMC10065799, “High-throughput profiling of sequence recognition by tyrosine kinases and SH2 domains using bacterial peptide display” (eLife, 2023)

How the values were obtained:
AncSZ = test: phosphorylation enrichment, bacterial display (enrichment ratio); higher = better substrate or ligand; peptides without Tyr show the background
EPHB1 = EPHB1 (UniProt P54762); test: as above
EPHB2 = EPHB2 (UniProt P29323); test: as above
FGFR1 = FGFR1 (UniProt P11362); test: as above
FGFR1, sequence (P11362 whole entry, looked up): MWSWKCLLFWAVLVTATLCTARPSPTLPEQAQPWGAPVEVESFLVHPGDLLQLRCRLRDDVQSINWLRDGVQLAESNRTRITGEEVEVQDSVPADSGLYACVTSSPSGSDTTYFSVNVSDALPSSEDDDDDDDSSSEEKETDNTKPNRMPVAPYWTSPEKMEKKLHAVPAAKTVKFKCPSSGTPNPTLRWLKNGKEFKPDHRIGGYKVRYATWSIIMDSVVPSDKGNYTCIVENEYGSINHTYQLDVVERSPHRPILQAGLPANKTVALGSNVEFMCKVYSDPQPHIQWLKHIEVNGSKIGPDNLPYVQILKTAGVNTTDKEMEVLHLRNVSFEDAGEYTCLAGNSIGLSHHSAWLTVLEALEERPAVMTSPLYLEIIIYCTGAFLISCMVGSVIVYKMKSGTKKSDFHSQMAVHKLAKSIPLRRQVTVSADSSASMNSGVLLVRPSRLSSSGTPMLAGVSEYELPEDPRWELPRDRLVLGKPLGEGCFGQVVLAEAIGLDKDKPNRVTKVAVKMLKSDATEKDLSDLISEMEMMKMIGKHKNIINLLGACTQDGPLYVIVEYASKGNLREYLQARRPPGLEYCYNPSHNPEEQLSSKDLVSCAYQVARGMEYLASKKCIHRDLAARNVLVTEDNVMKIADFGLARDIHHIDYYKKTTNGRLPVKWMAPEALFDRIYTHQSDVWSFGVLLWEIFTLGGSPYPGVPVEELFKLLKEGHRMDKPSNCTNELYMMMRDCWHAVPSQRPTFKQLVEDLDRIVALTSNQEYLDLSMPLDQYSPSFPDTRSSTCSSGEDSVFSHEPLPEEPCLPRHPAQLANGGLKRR

FGFR3 = FGFR3 (UniProt P22607); test: as above
FGFR3, sequence (P22607 whole entry, looked up): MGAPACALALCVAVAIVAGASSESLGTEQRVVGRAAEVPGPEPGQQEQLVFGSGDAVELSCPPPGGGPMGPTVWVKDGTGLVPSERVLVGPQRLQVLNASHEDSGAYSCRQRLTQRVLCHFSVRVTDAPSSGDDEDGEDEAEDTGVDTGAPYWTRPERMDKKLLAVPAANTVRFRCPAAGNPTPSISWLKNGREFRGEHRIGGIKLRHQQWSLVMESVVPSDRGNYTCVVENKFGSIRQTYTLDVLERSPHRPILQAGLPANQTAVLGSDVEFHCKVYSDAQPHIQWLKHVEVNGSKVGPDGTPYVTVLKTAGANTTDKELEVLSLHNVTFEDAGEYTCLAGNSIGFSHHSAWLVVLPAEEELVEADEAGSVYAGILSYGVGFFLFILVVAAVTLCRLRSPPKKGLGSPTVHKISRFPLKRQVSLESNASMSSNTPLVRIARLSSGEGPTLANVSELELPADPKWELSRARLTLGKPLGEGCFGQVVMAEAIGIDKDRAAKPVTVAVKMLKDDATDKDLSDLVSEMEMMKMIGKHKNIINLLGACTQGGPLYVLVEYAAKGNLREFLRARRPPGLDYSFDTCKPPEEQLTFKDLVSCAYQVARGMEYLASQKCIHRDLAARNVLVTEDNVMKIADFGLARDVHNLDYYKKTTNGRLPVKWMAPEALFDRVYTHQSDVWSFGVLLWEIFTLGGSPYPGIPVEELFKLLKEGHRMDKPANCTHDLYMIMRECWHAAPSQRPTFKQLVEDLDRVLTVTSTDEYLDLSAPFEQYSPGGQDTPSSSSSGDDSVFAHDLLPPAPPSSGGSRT

Fer (mouse) = test: as above
Fes = Fes (UniProt P07332); test: as above
Fyn = Fyn (UniProt P06241); test: as above
Fyn, sequence (P06241 whole entry, looked up): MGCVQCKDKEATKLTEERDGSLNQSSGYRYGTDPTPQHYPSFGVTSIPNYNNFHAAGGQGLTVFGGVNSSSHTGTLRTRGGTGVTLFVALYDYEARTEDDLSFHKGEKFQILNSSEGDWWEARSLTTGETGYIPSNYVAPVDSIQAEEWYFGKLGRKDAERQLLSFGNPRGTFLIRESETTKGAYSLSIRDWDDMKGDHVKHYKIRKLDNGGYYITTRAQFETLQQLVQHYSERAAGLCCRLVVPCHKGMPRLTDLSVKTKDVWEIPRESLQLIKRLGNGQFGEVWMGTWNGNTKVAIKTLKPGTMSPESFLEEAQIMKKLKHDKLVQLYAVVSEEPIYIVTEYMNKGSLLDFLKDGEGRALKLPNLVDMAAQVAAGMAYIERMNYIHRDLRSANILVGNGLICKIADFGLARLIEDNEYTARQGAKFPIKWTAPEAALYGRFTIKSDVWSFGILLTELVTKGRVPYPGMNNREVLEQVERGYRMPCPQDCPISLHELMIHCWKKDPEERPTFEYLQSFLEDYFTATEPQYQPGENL

Hck = Hck (UniProt P08631); test: as above
Hck, sequence (P08631 whole entry, looked up): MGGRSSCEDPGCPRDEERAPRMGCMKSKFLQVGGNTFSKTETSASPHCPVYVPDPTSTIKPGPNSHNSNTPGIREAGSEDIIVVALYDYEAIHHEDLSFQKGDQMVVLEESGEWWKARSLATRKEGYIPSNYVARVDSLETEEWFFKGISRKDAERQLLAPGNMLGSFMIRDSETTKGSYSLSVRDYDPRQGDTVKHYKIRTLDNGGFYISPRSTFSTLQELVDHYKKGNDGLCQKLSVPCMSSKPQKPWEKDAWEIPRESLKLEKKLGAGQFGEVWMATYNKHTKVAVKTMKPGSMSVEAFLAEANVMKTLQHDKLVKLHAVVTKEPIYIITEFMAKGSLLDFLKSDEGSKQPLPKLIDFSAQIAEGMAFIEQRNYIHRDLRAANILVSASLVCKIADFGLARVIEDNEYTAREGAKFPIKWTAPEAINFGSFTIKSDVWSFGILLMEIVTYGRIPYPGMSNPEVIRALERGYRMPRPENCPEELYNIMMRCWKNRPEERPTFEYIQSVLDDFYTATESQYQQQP

Jak2 = Jak2 (UniProt O60674); test: as above
Jak2, sequence (O60674 whole entry, looked up): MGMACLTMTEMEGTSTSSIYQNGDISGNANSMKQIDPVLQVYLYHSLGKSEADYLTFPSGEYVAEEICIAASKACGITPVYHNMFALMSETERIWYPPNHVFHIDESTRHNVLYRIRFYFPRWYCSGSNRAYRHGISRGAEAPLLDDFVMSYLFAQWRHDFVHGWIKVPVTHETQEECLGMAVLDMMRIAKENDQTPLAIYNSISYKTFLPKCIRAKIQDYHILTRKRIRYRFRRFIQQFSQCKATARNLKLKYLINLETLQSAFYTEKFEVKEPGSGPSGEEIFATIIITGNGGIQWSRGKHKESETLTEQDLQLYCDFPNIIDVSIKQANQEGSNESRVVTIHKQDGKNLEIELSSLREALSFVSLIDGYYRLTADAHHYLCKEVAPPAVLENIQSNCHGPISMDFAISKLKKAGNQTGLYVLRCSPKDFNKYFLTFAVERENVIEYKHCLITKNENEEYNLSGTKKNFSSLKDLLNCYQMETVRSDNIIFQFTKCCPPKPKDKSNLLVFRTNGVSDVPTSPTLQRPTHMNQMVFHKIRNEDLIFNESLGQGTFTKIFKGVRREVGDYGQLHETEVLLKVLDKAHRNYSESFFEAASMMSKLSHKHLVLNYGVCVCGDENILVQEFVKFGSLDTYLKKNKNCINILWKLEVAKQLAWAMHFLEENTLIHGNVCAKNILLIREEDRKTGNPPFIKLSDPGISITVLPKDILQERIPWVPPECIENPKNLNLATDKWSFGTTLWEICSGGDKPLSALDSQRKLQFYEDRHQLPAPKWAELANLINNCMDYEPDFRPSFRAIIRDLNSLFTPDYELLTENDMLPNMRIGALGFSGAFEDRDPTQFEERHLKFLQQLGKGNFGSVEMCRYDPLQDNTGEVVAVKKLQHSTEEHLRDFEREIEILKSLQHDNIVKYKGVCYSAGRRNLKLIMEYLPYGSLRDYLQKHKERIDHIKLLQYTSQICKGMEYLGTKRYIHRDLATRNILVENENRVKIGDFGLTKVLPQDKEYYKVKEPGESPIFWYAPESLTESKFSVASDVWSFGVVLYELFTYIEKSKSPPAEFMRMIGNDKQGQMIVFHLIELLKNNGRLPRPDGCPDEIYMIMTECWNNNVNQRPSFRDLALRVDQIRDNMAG

MERTK = MERTK (UniProt Q12866); test: as above
c-Abl (mouse) = test: as above
c-Src = test: as above
Grb2 SH2 = Grb2 SH2 (UniProt P62993); test: SH2 binding enrichment of the phosphorylated peptide, bacterial display (enrichment ratio); higher = better substrate or ligand; peptides without Tyr show the background
SHP2-C SH2 = test: as above
c-Src SH2 = test: as above
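For SH2 binding enrichment of the phosphorylated peptide, bacterial display in this document: peptide library displayed on the E. coli surface as eCPX fusions, selected cells deep-sequenced, score is each peptide's frequency after selection divided by its frequency in the input.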
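For phosphorylation enrichment, bacterial display in this document: 11-residue human phosphosite peptides and single-mutation variants displayed on the E. coli surface, counted by deep sequencing, each peptide's frequency after selection divided by its frequency in the unselected input library; frequency after pTyr selection over input frequency; kinase dosed for 20-30% of maximal phosphorylation in three min.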

EPHB1, sequence (P54762 whole entry, looked up): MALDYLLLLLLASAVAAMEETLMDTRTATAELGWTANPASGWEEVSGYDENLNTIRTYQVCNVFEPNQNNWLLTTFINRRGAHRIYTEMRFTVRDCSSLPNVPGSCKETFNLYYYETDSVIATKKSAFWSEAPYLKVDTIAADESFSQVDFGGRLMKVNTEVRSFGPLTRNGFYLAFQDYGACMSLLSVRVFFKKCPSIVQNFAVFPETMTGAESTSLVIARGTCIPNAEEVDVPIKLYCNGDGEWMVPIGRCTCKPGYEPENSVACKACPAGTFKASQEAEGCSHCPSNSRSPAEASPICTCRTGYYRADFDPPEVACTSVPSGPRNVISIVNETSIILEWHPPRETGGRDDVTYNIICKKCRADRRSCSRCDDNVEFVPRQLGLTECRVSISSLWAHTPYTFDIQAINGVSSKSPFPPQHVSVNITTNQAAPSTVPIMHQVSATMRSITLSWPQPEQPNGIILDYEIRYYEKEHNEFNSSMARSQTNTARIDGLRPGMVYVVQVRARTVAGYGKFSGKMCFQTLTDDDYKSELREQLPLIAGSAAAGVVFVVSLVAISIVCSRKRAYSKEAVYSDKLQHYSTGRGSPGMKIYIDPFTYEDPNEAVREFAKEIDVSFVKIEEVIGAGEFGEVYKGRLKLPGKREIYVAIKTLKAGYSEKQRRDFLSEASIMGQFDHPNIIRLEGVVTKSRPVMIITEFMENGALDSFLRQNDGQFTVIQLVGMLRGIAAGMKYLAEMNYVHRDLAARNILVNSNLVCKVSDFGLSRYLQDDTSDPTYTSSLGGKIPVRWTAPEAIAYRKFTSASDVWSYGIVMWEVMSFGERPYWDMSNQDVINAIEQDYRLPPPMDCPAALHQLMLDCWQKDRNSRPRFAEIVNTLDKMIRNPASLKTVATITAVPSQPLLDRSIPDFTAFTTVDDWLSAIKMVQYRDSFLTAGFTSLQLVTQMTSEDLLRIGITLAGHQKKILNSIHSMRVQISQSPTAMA

SH2 binding enrichment (Grb2 SH2) | SH2 binding enrichment (SHP2-C SH2) | SH2 binding enrichment (c-Src SH2) | Sequence | phosphorylation enrichment (AncSZ) | phosphorylation enrichment (EPHB1) | phosphorylation enrichment (EPHB2) | phosphorylation enrichment (FGFR1) | phosphorylation enrichment (FGFR3) | phosphorylation enrichment (Fer (mouse)) | phosphorylation enrichment (Fes) | phosphorylation enrichment (Fyn) | phosphorylation enrichment (Hck) | phosphorylation enrichment (Jak2) | phosphorylation enrichment (MERTK) | phosphorylation enrichment (c-Abl (mouse)) | phosphorylation enrichment (c-Src)
0.996 | 0.633 | 0.817 | IGRHAYGDQFR [IDH1_Y135_YF] | 0.449 | 0.367 | 0.391 | 0.331 | 0.383 | 0.339 | 0.507 | 0.381 | 0.341 | 0.487 | 0.296 | 0.516 | 0.407
0.848 | 0.521 | 0.433 | IGSHAYGDQYR [IDH1_Y135_R132S] | 0.583 | 0.497 | 0.419 | 0.45 | 0.517 | 0.374 | 0.619 | 0.464 | 0.342 | 0.554 | 0.406 | 0.576 | 0.43
0.946 | 0.77 | 0.913 | IHKEFYDGLFP [BCR_Y561] | 1.08 | 0.802 | 0.743 | 0.606 | 0.853 | 0.699 | 1.27 | 0.57 | 1.17 | 1.06 | 0.823 | 0.864 | 0.878
0.76 | 0.914 | 0.451 | IHTDAYVRAMT [RPE65_Y89_R85H] | 0.475 | 0.35 | 0.414 | 0.389 | 0.401 | 0.407 | 0.589 | 0.375 | 0.397 | 0.442 | 0.319 | 0.474 | 0.363
0.769 | 0.662 | 0.519 | IIEDPYFGNDF [ACP1_Y132_S137F_YF] | 1.36 | 0.664 | 0.695 | 0.791 | 0.908 | 0.757 | 1.43 | 1.11 | 0.823 | 1.3 | 0.487 | 0.871 | 2.98
0.958 | 0.488 | 0.726 | IIEDPYYGNDF [ACP1_Y132_S137F] | 1.79 | 0.683 | 0.666 | 3.18 | 2.88 | 1.42 | 1.48 | 2.71 | 1.55 | 1.48 | 1.15 | 1.09 | 4.91
0.848 | 0.74 | 0.484 | IIGNGYFFHVF [MYBPC3_Y1135_R1138H_YF] | 1.11 | 0.569 | 0.547 | 0.4 | 0.699 | 0.398 | 1.09 | 0.313 | 0.314 | 1.07 | 0.254 | 0.776 | 0.34
0.758 | 0.559 | 0.5 | IIQRAYRGHLL [SCN1A_Y1926_R1928G] | 0.483 | 0.38 | 0.327 | 0.447 | 0.628 | 0.387 | 0.671 | 0.429 | 0.428 | 0.555 | 0.47 | 0.437 | 0.432
0.865 | 0.456 | 0.416 | IKNFKYGIEEH [GJA1_Y137_K134N] | 0.621 | 0.351 | 0.508 | 0.388 | 0.549 | 0.311 | 0.715 | 0.335 | 0.414 | 0.682 | 0.383 | 0.38 | 0.368
0.909 | 0.895 | 0.524 | IKNPQYFSDAC [NTRK1_Y496_E492K] | 0.648 | 0.37 | 0.415 | 0.548 | 0.591 | 0.37 | 0.74 | 0.464 | 0.418 | 0.634 | 0.344 | 0.464 | 0.473
1.3 | 0.985 | 0.794 | ILCTVYAFKTR [GRM3_Y754] | 1.52 | 0.577 | 0.478 | 0.543 | 0.715 | 0.61 | 1.49 | 0.528 | 0.624 | 1.33 | 0.609 | 0.696 | 0.599
0.791 | 0.581 | 0.432 | ILDEAYVMAIV [EGFR_Y764_S768I] | 1.5 | 0.62 | 0.686 | 0.963 | 1.02 | 0.968 | 1.35 | 0.662 | 0.531 | 1.39 | 0.454 | 0.84 | 0.829
1.61 | 1.66 | 1.41 | IMNLLYHVVGW [GBA_Y412_T408M] | 0.963 | 4.93 | 2.71 | 6.14 | 5.38 | 2.16 | 0.872 | 4.49 | 6.31 | 2.43 | 7.65 | 2.74 | 5.2
0.749 | 0.675 | 0.66 | IMWDSYTTNKV [GNB3_Y85_V81M] | 0.945 | 0.544 | 0.437 | 0.451 | 0.64 | 0.392 | 0.885 | 0.33 | 0.421 | 0.91 | 0.305 | 0.553 | 0.369
4.77 | 0.777 | 2.07 | INQGPYENHSV [ATP6V1B1_Y462_R465H] | 0.646 | 0.436 | 0.639 | 0.441 | 0.524 | 9.94 | 0.804 | 0.471 | 0.4 | 0.68 | 0.55 | 0.54 | 0.524
0.778 | 0.598 | 0.665 | INSLKYAYNIS [EIF2B5_Y583] | 0.476 | 0.403 | 0.368 | 0.425 | 0.474 | 0.392 | 0.762 | 0.414 | 0.401 | 0.569 | 0.398 | 0.421 | 0.412
0.834 | 0.558 | 0.656 | IQKWEYVPLGP [FAH_Y244] | 1.02 | 0.612 | 0.521 | 1.11 | 0.822 | 0.454 | 1.01 | 0.514 | 0.48 | 1.43 | 0.597 | 0.791 | 0.453
